Test results as given in US6080542A, “Plant peptide transport gene” (priority 1997, dated 2000).
Like-named read-outs stand apart in the source and are kept apart here. Where a SMILES comes first, the peptide text is derived from it. Where no end group is shown, it is not given here. [ ]: non-standard residue; d: D form. hCys = N[C@@H](CCS)C(=O)O; Eth = ethionine

T1: Lys-Leu-Leu-Leu-Eth
T1 peptide: KLLL-Eth

T2: Lys-Leu-Leu-Ala-Eth
T2 peptide: KLLA-Eth

T3: Ala-Ala
T3 peptide: AA

T4: Met-Met
T4 peptide: MM

T5: Ala-Ala-Ala
T5 peptide: AAA

B1: yeast peptide transporter SACPTR2p (other)
chain: MLNHPSQGSDDAQDEKQGDFPVIEEEKTQAVTLKDSYVSDDVANSTERYNLSPSPEDEDFEGPTEEEMQTLRHVGGKIPMRCWLIAIVELSERFSYYGLSAPFQNYMEYGPNDSPKGVLSLNSQGATGLSYFFQFWCYVTPVFGGYVADTFWGKYNTICCGTAIYIAGIFILFITSIPSVGNRDSAIGGFIAAIILIGIATGMIKANLSVLIADQLPKRKPSIKVLKSGERVIVDSNITLQNVFMFFYFMINVGSLSLMATTELEYHKGFWAAYLLPFCFFWIAVVTLIFGKKQYIQRPIGDKVIAKSFKVCWILTKNKFDFNAAKPSVHPEKNYPWNDKFVDEIKRALAACKVFIFYPIYWTQYGTMISSFITQASMMELHGIPNDFLQAFDSIALIIFIPIFEKFVYPFIRRYTPLKPITKIFFGFMFGSFAMTWAAVLQSFVYKAGPWYNEPLGHNTPNHVHVCWQIPAYVLISFSEIFASITGLEYAYSKAPASMKSFIMSIFLLTNAFGSAIGCALSPVTVDPKFTWLFTGLAVACFISGCLFWLCFRKYNDTEEEMNAMDYEEEDEFDLNPISAPKANDIEILEPMESLRSTTKY
B2: ATPTR2Ap protein (other)
chain: MSSIEEQITKSDSDFIISEDQSYLSKEKKADGSATINQADEQSSTDELQKSMSTGVLVNGDLYPSPTEEELATLPSVCGTIPWKAFIIIIVELCERFAYYGLTVPFQNYMQFGPKDATPGALNLGETGADGLSNFFTFWCYVTPVGAALIADQFLGRYNTIVCSAVIYFIGILILTCTAIPSVIDAGKSMGGFVVSLIIIGLGTGGIKSNVSPLMAEQLPKIPPYVKTKKNGSKVIVDPVVTTSRAYMIFYWTINVGSLSVLATTSLESTKGFVYAYLLPLCVFVIPLIILAVSKTAFTSTLLPPVPSLFVLVKCSSLLLKTNLISKKLNHLALLLLERYVKDQWDDLFIDELKRALRACKTFLFYPIYWVCYGQMTNNLISQAGQMQTGNVSNDLFQAFDSIALIIFIPICDNIIYPLLRKYNIPFKPILRITLGFMFATASMIYAAVLQAKIYQRGPCYANFTDTCVSNDISVWIQIPAYVLIAFSEIFASITGLEFAFTKAPPSMKSIITALFLFTNAFGAILSICISSTAVNPKLTWMYTGIAVTAFIAGIMFWVCFHHYDAMEDEQNQLEFKRNDALTKKDVEKEVHDSYSMADESQYNLEKANC

How the values were obtained:
A. thaliana seedlings = experiment: Root elongation of seedlings exposed to toxic peptides; type: in vivo, Arabidopsis thaliana
Protocol: (§1) Thus, A. thaliana seeds and seedlings were exposed to Ethionine, Ala-Eth, Leu-Eth, Leu-fluorophenylalanine or oxalysine containing peptides, and the minimum inhibitory concentrations (MIC) were determined for each of the toxic compounds.
Approximately 15 A. thaliana seeds were placed in a row at one end of 10 cm plate containing 20 ml of Arabidopsis growth media (Kranz and Kirchheim 1987). The seeds were incubated 3-5 days in the light with the plate set in an upright position. When the roots were approximately 1-2 cm long, sterile paper filter disks were placed immediately in front of the root tips on the right and left side of the plate 2 cm from the edge of the plate. A line was drawn across the plate using the top of the disks as a guide marking zero growth. 5 μl of toxic amino acid analog, toxic peptide, or toxic peptide plus competitor was added to one disk while H2 O was place on the other disk. The plates were incubated for an additional 3-5 days. The average length of the roots was measured from the line and the results expressed as a percentage of control root growth.

PB1X-9B (pPTF4) = experiment: Toxic peptide disk assay, mutant with plant gene ATPTR2A; type: cell-based, Saccharomyces cerevisiae; conditions: for diameter of zone of inhibition: disk with 0.38 μmoles, lawn of 5×10^6 cells, 30° C., 1 to 2 days, mean ± standard error
Protocol: (§2) Since ptr mutants are deficient in peptide transport, they are unable to take up toxic peptides. This inability renders such mutants resistant to the toxic effect of the peptides. In order to determine whether the polynucleotides of the present invention could restore toxic peptide sensitivity to ptr2 mutants, the sensitivity of plasmid-transformed cells was determined. Sensitivity to toxic amino acids and peptides was measured as described by Island, M. D. et al. (J. Bacteriol. 169:2132-2136 (1987)). Briefly, a filter disk containing 0.38 μmoles of the toxic compound was placed on a lawn containing 5×10^6 cells and the plate incubated at 30° C. for 1 to 2 days. Resulting halos were measured across their diameter. The toxic dipeptides Leu-Eth, Ala-Eth, Leu-F-Phe and Oxalysine were synthesized by standard solution phase techniques (Naider, F. et al., J. Biol. Chem. 249:9-20 (1974). The results of this experiment are shown in Table 2 (values are the mean of the diameters of the observed zone of inhibition in millimeters±standard error of the mean of at least two independent experiments).

A. thaliana seeds = experiment: Seed germination with toxic peptides (minimum inhibitory concentration); type: in vivo, Arabidopsis thaliana; conditions: A. thaliana seeds
Protocol: as §1
To measure the minimum inhibitory concentration of the toxic peptides, 10 to 15 A. thaliara seeds were place on solid Arabidopsis growth media with decreasing concentrations of toxic peptide. The seeds were incubated for 4 days in the dark and then scored for germination.

S288C = experiment: Toxic peptide disk assay, wild type; type: cell-based, Saccharomyces cerevisiae; conditions: for diameter of zone of inhibition: disk with 0.38 μmoles, lawn of 5×10^6 cells, 30° C., 1 to 2 days, mean ± standard error
Protocol: as §2

PB1X-9B(pJP2) = experiment: Dipeptide utilization, L-alanyl-L-ethionine sensitivity and dileucine transport of secondary transformants; type: cell-based, Saccharomyces cerevisiae
Protocol: Plasmid pJP2 was then reintroduced into PB1X-9B. The resulting secondary yeast transformants were tested for the ability to use a variety of dipeptides as sources of amino acids and for sensitivity to the toxic dipeptide L-alanyl-L-ethionine. Thus, strains were grown in YEPG broth at 30° C. to a titer of 10^8 cells per ml. The cells were harvested by centrifugation, washed twice with sterile water and resuspended at 1.0×10^7 cells per ml. A 5-μl aliquot was applied to solid MM containing dipeptides and amino acids as required. Four types of solid media were routinely used in assessing dipeptide utilization: MM+L-leucyl-L-leucine-L-lysine+L-histidine, MM-L-lysI-L-lysine-L-leucine-L-histidine (SEQ ID NO:12), MM-L-lysl-L-leucine-L-histidine, and MM-L-histydyl-L-leucine-L-lysine. All dipeptides were present at a concentration of 80 μM, while amino acids and nucleotide bases were added as required at standard concentrations (Sherman, F. et al., In: Methods in Yeast Genetics, Cold Spring Harbor Laboratory, Clod Spring Harbor, N.Y. (1986)). The plates were incubated at 30° C. for 48 hours and then scored for growth.

PB1X-9B (pJP9) = experiment: Toxic peptide disk assay, mutant with yeast peptide transport gene; type: cell-based, Saccharomyces cerevisiae; conditions: for diameter of zone of inhibition: disk with 0.38 μmoles, lawn of 5×10^6 cells, 30° C., 1 to 2 days, mean ± standard error
Protocol: as §2

ATPTR2Ap = experiment: Uptake of L-leucyl-L-[3H]leucine and competition, PB1X-9B[pPTF4]; conditions: PB1X-9B transformed with pPTF4, compared with wild type, trifluoroacetic acid (TFA)
Protocol: The kinetics of ATPTR2A-mediated transport of peptides in yeast was evaluated by transforming pPTF4 into the S. cerevisiae peptide transport mutant, PB1X-9B and measuring the uptake of tritiated Leu-Leu dipeptide.
L-leucyl-L [^3 H]leucine trifluoroacetic acid (TFA) was synthesized by standard solution phase techniques (Naider, F. et al., J. Biol. Chem. 249:9-20 (1974)). Uptake of L-leucyl-L-[H]leucine was performed as by Island, M. D. et al (J. Bacteriol. 169:2132-2136 (1987)), with the following modifications. Cells were grown to late log phase (26×10^7 cells/ml) overnight in SC with 2% glucose, 1 mg/ml allantoin plus amino acids to supplement auxotrophic markers. To induce peptide transport. 5-15 ml from this culture was added to 100 ml fresh medium such that the density was 3.0×10^6 cells/ml. This culture was allowed to grow (approx. 2 hrs.) to a density of 6.0×10^6 cells/ml and then harvested by centrifugation. The pelleted cells were washed twice with 10 ml cold dH2 O and suspended in cold 2% glucose to a final concentration of 2×10^8 cells/ml and incubated at 30° C. for 15 min. 500 μl of cells were then added to an equal volume of reaction mixture (30° C.) and incubated at 30°-C. At 20, 40, 60, 90, and 120 sec. intervals, 190 μl portions were removed, filtered over filters (pore size, 0.45 μm; GN-6; Gelman Sciences, Inc., Ann Arbor, Mich.) and washed 2 times with 5 ml cold, sterile dH2 O and once with 5 ml dH2 O at room temperatures. Filters were placed in scintillation vials with 5 ml of Budget-Solve scintillation cocktail (Research Products International Corp., Mount Prospect, Ill.) and counted (liquid scintillation counter; LS-7000; Beckman Instruments, Inc., Fullerton, Calif.). The final concentration of the components in the uptake assay was 1% glucose, 40 mM sodium citrate-potassium phosphate buffer (pH 5.5), and 1.5×105 M L-leucyl-L-[^3 H]leucine (specific activity, 10 mCi/mmole). Uptake is expressed as nanomoles per mg dry weight.

[1] = tested on: S. cerevisiae strains tested; experiment: Toxic peptide disk assay, statements covering several strains; type: cell-based, Saccharomyces cerevisiae; conditions: wild type (S288C) and transformants
Protocol: as §2

Lys-Leu-Leu-Leu-Eth = target: T1, Lys-Leu-Leu-Leu-Eth; experiment: cell-based or functional assay
Lys-Leu-Leu-Ala-Eth = target: T2, Lys-Leu-Leu-Ala-Eth; experiment: cell-based or functional assay
Leu-Eth [2] = target: Leu-Eth
L-alanyl-L-ethionine [3] = target: L-alanyl-L-ethionine
Ala-Ala = target: T3, Ala-Ala; experiment: cell-based or functional assay
Met-Met = target: T4, Met-Met; experiment: cell-based or functional assay
Ala-Ala-Ala = target: T5, Ala-Ala-Ala; experiment: cell-based or functional assay
Leu-Eth [4] = target: Leu-Eth; remark: listed apart in the source
L-alanyl-L-ethionine [5] = target: L-alanyl-L-ethionine; remark: listed apart in the source

Molecule	amount that inhibits root elongation of seedlings (A. thaliana seedlings)	sensitivity or resistance to toxic compound (PB1X-9B (pPTF4))	diameter of zone of inhibition (PB1X-9B (pPTF4))	amount that inhibits germination of seeds (A. thaliana seeds)	diameter of zone of inhibition (S288C)	diameter of zone of inhibition (PB1X-9B (pJP9))	diameter of the zone of inhibition, disk assay with 0.38 µmoles (Lys-Leu-Leu-Leu-Eth)	diameter of the zone of inhibition, disk assay with 0.38 µmoles (Lys-Leu-Leu-Ala-Eth)	diameter of the zone of inhibition, disk assay with 0.38 µmoles (Lys-Leu-Eth)	diameter of the zone of inhibition, disk assay with 0.38 µmoles (Lys-Ala-Eth)	diameter of the zone of inhibition, disk assay with 0.38 µmoles (Leu-Eth [2])	diameter of the zone of inhibition, disk assay with 0.38 µmoles (Leu-F-Phe)	diameter of the zone of inhibition, disk assay with 0.38 µmoles (L-alanyl-L-ethionine [3])	diameter of the zone of inhibition, disk assay with 0.38 µmoles (Lys-Leu-Leu-Eth)	diameter of the zone of inhibition, disk assay with 0.38 µmoles (Lys-Leu-Ala-Eth)	further results
CCSCC[C@H](NC(=O)[C@H](C)N)C(=O)O [Ala-Eth, L-alanyl-L-ethionine] (H-Ala-[hCys](Et)-OH)	0.038 µmol	restores sensitivity	35.0 ± 1.0 millimeters	0.038 µmol	33.5 ± 2.5 millimeters	42.5 ± 2.5 millimeters	–	–	–	–	–	–	–	–	–	sensitivity to toxic dipeptide (PB1X-9B(pJP2)): sensitive
L-leucyl-L [^3 H]leucine trifluoroacetic acid (TFA) [[H^3]-dileucine]	–	–	–	–	–	–	–	–	–	–	–	–	–	–	–	uptake of radiolabeled dileucine (ATPTR2Ap; listed as radiolabeled dileucine): comparable to that of wild type; uptake of radiolabeled dileucine (ATPTR2Ap): wild-type levels; transport of radiolabeled dileucine (PB1X-9B(pJP2); compared with wild type): levels approximating those of the wild type
Leu-fluorophenylalanine [Leu-F-Phe]	not inhibited	restores sensitivity	37.0 ± 1.0 millimeters	not inhibited	28.0 ± 4.0 millimeters	20.5 ± 3.0 millimeters	–	–	–	–	–	–	–	–	–	sensitivity to toxic compound [1]: less sensitive; sensitivity or resistance to toxic compound (PB1X-9B (pPTF4); listed as leucine-fluorophenylaianine): greater and more complete sensitivity; appearance of halo (S288C): hazy background within the halo; appearance of halo (PB1X-9B (pJP9)): hazy background within the halo
B1	–	–	–	–	–	–	0 mm	0 mm	36 mm	36 mm	47 mm	20.5 mm	42.5 mm	0 mm	0 mm	–
B2	–	–	–	–	–	–	0 mm	0 mm	35 mm	37.5 mm	45 mm	37 mm	35 mm	0 mm	0 mm	reversal by a competitor peptide of the inhibition of A. thaliana root growth by Ala-Eth or Leu-Eth (Ala-Ala): 0 % of control root growth; reversal by a competitor peptide of the inhibition of A. thaliana root growth by Ala-Eth or Leu-Eth (Met-Met): 40 % of control root growth; reversal by a competitor peptide of the inhibition of A. thaliana root growth by Ala-Eth or Leu-Eth (Ala-Ala-Ala): 0 % of control root growth; inhibition of germination of A. thaliana seeds and of root elongation of seedlings (Leu-Eth [4]): 0.038 µmol; inhibition of germination of A. thaliana seeds and of root elongation of seedlings (L-alanyl-L-ethionine [5]): 0.038 µmol
